In patent publication US9707274B2, “Methods for preventing and treating post-traumatic stress disorder (PTSD)” (priority 2007, dated 2017):
No end group written: not given here.

Experiments:
α-adrenergic = settings: topical nasal application; cited from earlier work
[1] = Data set 1: tissue and blood distribution of intranasal HC with and without 1% PHE (pretreatment intervals 0, 5, 15 min merged); assay type: in vivo, rats
From the text: We investigated whether incorporation of a vasoconstrictor (phenylephrine, PHE) in the nasal formulation enhances drug targeting of an intranasally applied neuropeptide (hypocretin-1, HC) to the brain in rodents. Several factors may effect CNS concentrations of HC following intranasal administration of HC in the presence of PHE, including the dose of vasoconstrictor, the time after intranasal delivery, and the pretreatment time interval. PHE is commonly used at a dose of 1% for nasal decongestion and topical nasal application of PHE results in a rapid onset of action and duration of action of approximately 4 hours. Ideally, it would be preferred to have a nasal formulation where the vasoconstrictor and CNS drug are administered together, without the need for pretreatment of the nasal cavity with vasoconstrictor. Clearly this would be more convenient than having to intranasally pretreat, wait a period of time (5 min or 15 min), and then intranasally administer the CNS drug with additional vasoconstrictor. However, waiting a short period of time may be a necessary step to allow the vasoconstrictor to activate adrenergic receptors located on blood vessels in the nasal cavity to result in constriction. Thus, in these experiments, three pretreatment time intervals were investigated: 0 min (or no pretreatment), 5 min, 15 min, to determine the time interval necessary to wait to allow the intranasally applied 1% PHE to take effect. Anesthetized rats were sacrificed at 30 minutes following intranasal delivery of HC and 1% PHE, since typically high brain concentrations are achieved within 25-30 minutes of intranasal administration.
One-way ANOVAs comparing tissue concentrations in the three groups from the PHE-treated animals were also performed. […] Thus, the therapeutic compound(s) and vasoconstrictor(s) may be combined in a pharmaceutical composition while retaining full therapeutic benefit of the present invention. […] As a result, data obtained from control animals with different pretreatment time intervals were merged and data obtained from PHE-treated animals with different pretreatment time intervals were merged. Statistical comparisons were made between tissue concentrations in control animals (n=28) and PHE-treated animals (n=23).

[2] = design: species or system rats; settings: rat, in vivo
From the text: Incorporation of at least one vasoconstrictor in a nasal formulation including at least one therapeutic compound, i.e., a pharmaceutical composition, enhances intranasal therapeutic compounds targeting of therapeutics to, inter alia, the CNS, meninges and lymphatics by reducing absorption into the blood, increasing concentrations in, inter alia, the CNS, or both. […] Inclusion of a vasoconstrictor in the intranasal formulation (IN PHE) further enhances brain targeting of HC compared to the intravenous delivery from the previous study (Table 2, IN PHE vs. IV). In addition, compared to intranasal delivery with no additives, intranasal administration of HC in combination with 1% PHE further enhances intranasal drug targeting to the brain, with increased targeting to the olfactory bulbs (7-fold increase), anterior olfactory nucleus (2-fold increase), frontal cortex (2-fold increase), hippocampus (2-fold increase), and hypothalamus (2-fold increase) (Table 2, IN PHE vs. IN). 1% PHE also enhances intranasal drug targeting to the superficial and deep cervical lymph nodes (5 to 6-fold) and to the meninges surrounding the brain (2-fold). Therefore, inclusion of a vasoconstrictor in an intranasal formulation is a novel strategy to further enhance intranasal drug targeting to the brain and lymphatics compared to other routes of administration. […]

[3] = rat, in vivo
Method: Both vasoconstricting agents are α-adrenergic agonists with short duration of action (4-6 hours). The therapeutic compound selected was hypocretin-1 (HC, MW 3500), a peptide with therapeutic potential for treating narcolepsy. In addition to determining the effect of vasoconstrictors on the intranasal delivery of hypocretin-1 to the CNS, peripheral tissues and blood, vasoconstrictor effects on the drug targeting index (DTI) were also examined.
Thirty minutes following onset of intranasal delivery, rats were perfused with saline and fixed with 4% paraformaldehyde. […] The DTI for each tissue was calculated by dividing the ratio of mean tissue concentration to blood area under the curve (AUC) of the vasoconstrictor group by the ratio of mean tissue concentration to blood AUC of the control group. DTI>1.0 indicated a drug targeting advantage with the vasoconstrictor.

[4] = system: human brain muscarinic cholinergic receptor; settings: in vitro; cited from earlier work
[5] = system: saliva and plasma cortisol response; settings: general intranasal insulin 40 IU, 26 normal adult men, placebo controlled; cited from earlier work
[6] = cited from earlier work

CNC[C@H](O)c1cccc(O)c1 [PHE, phenylephrine]
Duration of action (α-adrenergic): approximately 4 hours

hypocretin-1 (QPLPDCCRQKTCSCRLYELLHGAGNHAAGILTL; ends and bridges not checked; also: 125I label, site not given here; UniProt O43612 34-66, looked up) [HC]
Concentration of HC, Trigeminal Nerve ([1]; intranasal HC + 1% PHE, rats, 30 min): 1.71 ± 0.15 nM
Concentration of HC, Medulla ([1]; intranasal HC control (no PHE), rats, 30 min): 1.26 ± 0.22 nM
HC targeting (tissue-to-blood ratio), 1% PHE vs control, trigeminal nerve ([1]; rat, in vivo): not significantly different
HC targeting (tissue-to-blood ratio), increase with 1% PHE vs control, anterior olfactory nucleus ([1]; rat, in vivo): 2.4 fold
HC targeting (tissue-to-blood ratio), increase with 1% PHE vs control, cerebellum ([1]; rat, in vivo): 1.7 fold
HC targeting (tissue-to-blood ratio), increase with 1% PHE vs control, deep cervical lymph nodes ([1]; rat, in vivo): 5.7 fold
HC targeting (tissue-to-blood ratio), increase with 1% PHE vs control, dorsal meninges ([1]; rat, in vivo): 1.7 fold
HC targeting (tissue-to-blood ratio), increase with 1% PHE vs control, frontal cortex ([1]; rat, in vivo): 2.3 fold
HC targeting (tissue-to-blood ratio), increase with 1% PHE vs control, medulla ([1]; rat, in vivo): 1.7 fold
HC targeting (tissue-to-blood ratio), increase with 1% PHE vs control, midbrain ([1]; rat, in vivo): 1.7 fold
HC targeting (tissue-to-blood ratio), increase with 1% PHE vs control, olfactory bulbs ([1]; rat, in vivo): 6.8 fold
HC targeting (tissue-to-blood ratio), increase with 1% PHE vs control, superficial cervical lymph nodes ([1]; rat, in vivo): 5.7 fold
HC targeting (tissue-to-blood ratio), increase with 1% PHE vs control, ventral meninges ([1]; rat, in vivo): 2.9 fold
HC drug targeting, enhancement to the meninges surrounding the brain [2]: 2 fold
Respiration during intranasal delivery [3]: did not lead to any improvement in respiration
Respiratory distress in animals during intranasal delivery [3]: fewer incidences of respiratory distress

O=P(O)(O)OP(=O)(O)O [pyrophosphate]
Concentration protecting the receptor from inactivation by oxidants such as heme [4]: 1-5 μm

insulin
Saliva and plasma cortisol response to the Trier Social Stress Test [5]: significantly diminished
Memory, attention and functioning in Alzheimer's patients ([6]; intranasal insulin over a 21 day period): improve memory, attention and functioning
Blood levels of insulin or glucose ([6]; intranasal insulin treatment, healthy adults): no change
Memory in healthy adults ([6]; intranasal insulin treatment): improves memory
Memory in patients with Alzheimer's disease ([6]; intranasal insulin, twenty minutes after a single treatment): improve memory
